One molecule from patent US20110237462A1 (FUJIFILM, published 2011) can be followed below.

The target of this assay is T1, MBP-VH(BGP) labeled with ALEXA FLUOR 555 together with MBP-VL(BGP) labeled with ALEXA FLUOR 647 (labeled with ALEXA FLUOR 647 (labeled residues not stated); labeled with ALEXA FLUOR 555 (labeled residues not stated)).
T1 construct: Two separate MBP-fused antibody fragments, covalently immobilized on a carboxymethyl dextran glass substrate; The MBP leader is part of the printed entries; also called fusion protein of anti-osteocalcin (BGP) VH-region polypeptide with MBP; fusion protein of anti-BGP VL-region polypeptide (antibody KTM219) with MBP
As to the kind of experiment: FRET on immobilization substrates I and J.

B1: C-terminal heptapeptide fragment of BGP (RRFYGPY) (peptide)
peptide: RRFYGPY
notes: also called BGP heptapeptide; BGP heptapeptide (RRFYGPY)
For the molecule B1, the binding result is “binds”.
